According to US20070136889A1 (CROPDESIGN N V, published 2007):
Substitutions are numbered along the chain they refer to. Numbers in names are those of the source.

Legend:
[1] = molecular target: T1, GAL4 DNA-binding domain-CDC2aAt fusion protein encoded by pGBTCDC2A (Arabidopsis thaliana, UniProt P04386 1-147; P24100 1-294); assay: yeast two-hybrid, his3 reporter, control with GAL4 activation domain only
T1 construct: Two-hybrid bait

[2] = molecular target: T2, GAL4 DNA-binding domain only (plasmid pGBT9) (UniProt P04386 1-147); assay: yeast two-hybrid, his3 reporter, control with empty pGBT9
T2 construct: Negative control of the two-hybrid assay; also called empty pGBT9 vector
Procedure: The need for this C-terminal domain for the interaction with CDC2At was assayed using the two-hybrid system. A gene encoding a truncated CKS1At protein was created by mutating the Tyr73 codon to a stop codon, thereby deleting the last 15 amino acids. Subsequently, this mutated gene was cloned in frame with the GAL4 activation domain, resulting in the pGADCDSQ plasmid. This vector was introduced into the HF7c yeast reporter strain, together with pGBTCDC2A or the empty pGBT9 vector. […] Therefore, this part of the CKS1At protein might be involved in the interaction with other proteins or may improve the stability of the CDK-CKS1At interaction.

CDC2aAt protein = molecular target: T3, CDC2aAt protein (Arabidopsis thaliana, UniProt P24100 1-294); assay: co-immunoprecipitation with the CKS1At antibody from extracts of G1/S cells, blot probed with the CDC2aAt antibody
T3 construct: Endogenous protein in extracts of partially synchronized Arabidopsis cell suspensions
Procedure: Arabidopsis thaliana cell suspensions were partially synchronized by the addition of aphidicolin to freshly diluted cell suspension cells. After 24 hours the drug was washed away and cells were cultivated in new medium. Samples were collected at several time points and partly used for nuclei preparation, partly for protein extraction. […] The CKS1At containing complexes were precipitated with the use of a CKS1At specific antibody (see example 9 of this application). These complexes were resolved on a SDS PAGE gel and immunoblotted. The presence of CDC2aAt as a component of the immuno-precipitated complexes was verified by probing this blot with a CDC2aAt specific antibody. This antibody detected a specific band of the correct molecular size in the extracts of the G1/S cells.

[3] = molecular target: T4, GAL4 DNA-binding domain-CDC2bAt fusion protein encoded by pGBTCDC2B (Arabidopsis thaliana, UniProt P04386 1-147; P25859 1-309); assay: yeast two-hybrid, his3 reporter
T4 construct: Two-hybrid bait
Procedure: The recently published structure of the human CDK2 protein in complex with the human CKS1At homologue CKSHs1 helped to identify the amino-acids in the CKS/SUC1 proteins important for interaction with CDKs. Based upon this information the E61 residue of CKS1At was mutated into Q61 by PCR. The consequences of this mutation upon the binding affinity for CDC2aAt and CDC2bAt were tested with the use of a two-hybrid system utilizing the his3 gene as reporter gene. The coding region of both the wild type CKS1At and the mutated CKS1At.Q61 gene was cloned in frame with the GAL4 activation domain in the pGAD424 vector, resulting in the pGADCKS and pGADCKS.Q61 respectively. These vectors were used to cotransform the HF7c yeast cells with pGBTCDC2A or pGBTCDC2B. The pGBTCDC2A and pGBTCDC2B vectors encode for a fusion protein between the GAL4 DNA-binding domain and CDC2aAt or CDC2bAt respectively. The transformants were plated on selective medium in the absence of histidine to test the interactions between CKS1At and CKS1At.Q61 with CDC2aAt and CDC2bAt. Transformants were also streaked on medium containing 10, 20, 40, 80 or 160 mM 3-amino-1,2,4-triazole (3-AT). 3-AT acts as a competitive inhibitor of the his3 gene product.

T3 sequence (P24100 whole entry): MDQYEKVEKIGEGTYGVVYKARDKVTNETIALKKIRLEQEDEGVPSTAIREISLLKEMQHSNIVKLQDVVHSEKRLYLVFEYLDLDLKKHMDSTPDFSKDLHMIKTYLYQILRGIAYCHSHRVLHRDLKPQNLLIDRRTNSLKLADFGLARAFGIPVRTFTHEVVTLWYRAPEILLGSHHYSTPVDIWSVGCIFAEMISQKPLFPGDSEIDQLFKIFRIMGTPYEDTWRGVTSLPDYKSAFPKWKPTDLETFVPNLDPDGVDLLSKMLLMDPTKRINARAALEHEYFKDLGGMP

B1: GAL4 activation domain only (vector pGAD424) (other, UniProt P04386 768-881, looked up)
chain: ANFNQSGNIADSSLSFTFTNSSNGPNLITTQTNSQALSQPIASSNVHDNFMNNEITASKIDDGNNSKPLSPGWTDQTAYNAFGITTGMFNTTTMDDVYNYLFDDEDTPPNPKKE
notes: Negative control of the two-hybrid assay
[1]
  binding result: no binding

B2: GAL4 activation domain fused to truncated CKS1At lacking the last 15 amino acids, encoded by pGADCKSQ (other, not shown: large carriers)
chain: MGQIQYSEKYFDDTFEYRHVVLPPEVAKLLPKNRLLSENEWRAIGVQQSRGWVHYAVHRPEPHIMLFRRPLN
notes: Tyr73 codon mutated to a stop codon, deleting the last 15 amino acids; also called pGADCDSQ; truncated CKS1At protein
[2]
  binding result: no binding

B3: CKS1At protein (CDK-associating subunit from Arabidopsis thaliana) (other)
chain: MGQIQYSEKYFDDTFEYRHVVLPPEVAKLLPKNRLLSENEWRAIGVQQSRGWVHYAVHRPEPHIMLFRRPLNYQQQQENQAQNMLVK
notes: also called wild type CKS1At
CDC2aAt protein
  binding result: binds

B4: GAL4 activation domain-CKS1At.Q61 fusion protein encoded by pGADCKS.Q61 (other, not shown: large carriers; small tags and cut ends)
chain: B3 chain with E61Q
notes: Two-hybrid prey with the E61 residue of CKS1At mutated into Q61; also called CKS1At mutant E61Q
[3]
  binding result: no binding
